US20130280279A1 (Hoffmann-La Roche, published 2013)

T1: digoxigenated protein Dig-BP4
T1 chain: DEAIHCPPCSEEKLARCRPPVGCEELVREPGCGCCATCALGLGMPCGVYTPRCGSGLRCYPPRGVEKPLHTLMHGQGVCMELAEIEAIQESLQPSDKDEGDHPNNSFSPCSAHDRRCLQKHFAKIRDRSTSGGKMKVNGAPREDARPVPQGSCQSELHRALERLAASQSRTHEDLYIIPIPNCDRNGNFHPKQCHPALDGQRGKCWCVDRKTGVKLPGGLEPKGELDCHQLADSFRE


Key:
[1] = biological target: T1, digoxigenated protein Dig-BP4; assay: SPR (Biacore), antibody captured by anti-mouse IgG, DIG-BP4 injected
Description: (§1) Surfaces were blocked with an injection of 1 M ethanolamine/HCl pH 8.5. […] To evaluate the functionality of the recombinant <Dig> derivatives, binding of the recombinant hu<Dig> modules, incl.
(§2) Anti-mouse IgG antibody was immobilized on the surface of a CM5 biosensor chip in the same fashion as described above. […] The samples to be analyzed were diluted in HBS-P (10 mM HEPES, pH 7.4, 150 mM NaCl, 0.005% Surfactant P20) and injected at a flow rate of 5 μl/min. The contact time (association phase) was 3 min for the antibodies at a concentration between 1 and 5 nM. […] The contact time (association phase) was 3 min, the dissociation time (washing with running buffer) 5 min for each molecule at a flow rate of 30 μl/min. All interactions were performed at 25° C. (standard temperature). […] Signals were detected at a rate of one signal per second.

[2] = biological target: T1, digoxigenated protein Dig-BP4; assay: SPR (Biacore), antibody captured by anti-human IgG, DIG-BP4 injected
Description: as §1, §2

| Binder | Kd [1] [pM] | Kd [2] [pM] |
| --- | --- | --- |
| murine <Dig> IgG1 kappa from mouse hybridoma clone 19-11 (antibody, V domains shown, also called murine DIG-IgG 19-11; mu<Dig> 19-11) VH: EVQLVESGGGLVKPGGSLKLSCAVSGFTFSDYAMSWIRQTPENRLEWVASINIGATYAYYPDSVKGRFTISRDNAKNTLFLQMSSLGSEDTAMYYCARPGSPYEYDKAYYSMAYWGPGTSVTVSS VL: DVQMTQSTSSLSASLGDRVTISCRASQDIKNYLNWYQQKPGGTVKLLIYYSSTLLSGVPSRFSGRGSGTDFSLTITNLEREDIATYFCQQSITLPPTFGGGTKLEIK | 33 | – |
| humanized <Dig> IgG (antibody, V domains shown, also called hu<Dig> IgG; DIGHu2) VH: QVQLVESGGGLVKPGGSLRLSCAASGFTFSDYAMSWIRQAPGKGLEWVSSINIGATYIYYADSVKGRFTISRDNAKNSLYLQMNSLRAEDTAVYYCARPGSPYEYDKAYYSMAYWGQGTTVTVSS VL: DIQMTQSPSSLSASVGDRVTITCRASQDIKNYLNWYQQKPGKAPKLLIYYSSTLLSGVPSRFSGSGSGTDFTLTISSLQPEDFATYYCQQSITLPPTFGGGTKVEIKR | – | < 76 |
